Reference: article PMC10881965, “Structural optimization of siRNA conjugates for albumin binding achieves effective MCL1-directed cancer therapy”

Biological target: human serum albumin (Homo sapiens, UniProt P02768 25-609)
Test: BLI; EMSA: 0.1 nmol siRNA conjugate, 5x molar excess albumin, 30 min at 37 C, 4-20% TGX gel; BLI: albumin 400 nM (or varied), buffer not in material

Chain of human serum albumin (P02768 25-609): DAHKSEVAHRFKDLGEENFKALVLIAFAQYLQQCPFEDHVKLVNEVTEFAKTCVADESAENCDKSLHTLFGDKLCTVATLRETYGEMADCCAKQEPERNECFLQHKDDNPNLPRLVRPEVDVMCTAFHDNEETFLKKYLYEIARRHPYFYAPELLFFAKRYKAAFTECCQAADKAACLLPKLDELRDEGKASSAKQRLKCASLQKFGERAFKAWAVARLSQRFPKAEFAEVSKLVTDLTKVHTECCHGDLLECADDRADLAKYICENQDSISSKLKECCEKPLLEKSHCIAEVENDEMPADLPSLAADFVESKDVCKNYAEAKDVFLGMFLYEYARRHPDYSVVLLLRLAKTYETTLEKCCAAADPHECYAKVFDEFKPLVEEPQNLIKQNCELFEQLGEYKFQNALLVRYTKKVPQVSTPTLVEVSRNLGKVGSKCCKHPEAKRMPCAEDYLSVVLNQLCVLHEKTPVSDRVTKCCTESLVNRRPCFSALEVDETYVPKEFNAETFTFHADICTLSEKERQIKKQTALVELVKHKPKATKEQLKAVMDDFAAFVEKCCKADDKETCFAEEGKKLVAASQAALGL

B1: si<(EG18L)2 (dsRNA)
RNA 1: CAAUUGCACUGAUAAUGAA
RNA 2: UUCAUUAUCAGUGCAAUUG
modifications: 2'-F/2'-OMe, PS; 5' sense divalent stearyl, 18 EG per arm, proximal branch
  Kd: 30 ± 0.3 nM

B2: si<(EG30L)2 (dsRNA)
RNA 1: CAAUUGCACUGAUAAUGAA
RNA 2: UUCAUUAUCAGUGCAAUUG
modifications: 2'-F/2'-OMe, PS; 5' sense divalent stearyl, 30 EG per arm
  Kd: 9.49 ± 0.1 nM
